{
  "source": "FireProtDB (doi:10.1021/bi00005a026)",
  "proteins": {"B1": {"name": "Subtilisin-chymotrypsin inhibitor-2A wild type, P01053 (protein)", "chain": "MSSVEKKPEGVNTGAGDRHNLKTEWPELVGKSVEEAKKVILQDKPEAQIIVLPVGTIVTMEYRIDRVRLFVDKLDNIAQVPRVG"}},
  "conditions": "Hordeum vulgare; pH 6.3; Thermal; Fluorescence; phosphate 10 mM; reversible: yes; whole UniProt chain shown",
  "data": [
    {"protein": "B1", "values": [
      {"measurement": "Tm", "result": 46.6, "unit": "°C"},
      {"measurement": "unfolding enthalpy (van 't Hoff)", "result": 34.1, "unit": "kcal/mol"}
    ]}
  ]
}
